Assay in all cases: cell-based or functional assay
Test [1] has as its target HIV-1 Env of PVO.04.SG3 pseudovirus (clade B) (HIV-1).
Test [2] has as its target HIV-1 Env of KER2008.12.SG3 pseudovirus (clade A) (HIV-1).
Test [3] has as its target HIV-1 Env of ZM215.8.SG3 pseudovirus (clade C) (HIV-1).
Test [4] concerns the target HIV-1 Env of 6095.V1.C10.SG3 pseudovirus (clade ACD) (HIV-1).
In test [5] the target is HIV-1 Env of YU2.DG.SG3 pseudovirus (clade B) (HIV-1) (UniProt P35961).
The target in test [6] is HIV-1 Env of CNE31.SG3 pseudovirus (clade C) (HIV-1).
For test [7], the target named is HIV-1 Env of TH966.8.SG3 pseudovirus (clade AE) (HIV-1).
Test [8] concerns the target HIV-1 Env of ZM106.9.SG3 pseudovirus (clade C) (HIV-1).
For test [9], the target named is HIV-1 Env of 6101.10.SG3 pseudovirus (clade B) (HIV-1).

Sequence of 10E8v4 S100cY (antibody) (VH): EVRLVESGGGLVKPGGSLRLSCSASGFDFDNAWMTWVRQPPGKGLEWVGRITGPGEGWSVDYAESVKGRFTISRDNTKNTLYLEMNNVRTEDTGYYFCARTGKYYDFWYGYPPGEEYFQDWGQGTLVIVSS
Sequence of 10E8v4 S100cY (antibody) (VL): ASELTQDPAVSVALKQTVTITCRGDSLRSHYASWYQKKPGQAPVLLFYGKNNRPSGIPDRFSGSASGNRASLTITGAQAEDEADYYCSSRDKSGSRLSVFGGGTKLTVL
Sequence of 10E8v4 S100cR (antibody) (VH): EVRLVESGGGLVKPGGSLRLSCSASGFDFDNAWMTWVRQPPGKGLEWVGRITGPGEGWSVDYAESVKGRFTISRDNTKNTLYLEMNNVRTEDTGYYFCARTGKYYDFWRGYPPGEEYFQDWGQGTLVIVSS
Sequence of 10E8v4 S100cR (antibody) (VL): as the sequence (VL) above

Take 10E8v4 S100cR (antibody): the IC50, pseudovirus neutralization was 6.45 µg/mL in test [1]; above 50 µg/mL in test [2]; 0.363 µg/mL in [3]; 11 ng/mL in test [4]; 3.87 µg/mL in [5]; 2.54 µg/mL in test [6]. Besides, the IC50, pseudovirus neutralization in test [7] is 0.168 µg/mL; in test [8], above 50 µg/mL; in [9], 0.176 µg/mL. Also, the IC80, pseudovirus neutralization in test [1] is 25 µg/mL; in [2], above 50 µg/mL; in test [3], 1.34 µg/mL; in test [4] it was 0.048 µg/mL; in test [5], 12 µg/mL; in [6], 8.42 µg/mL. The IC80, pseudovirus neutralization in [7] was 0.648 µg/mL; in [8] it was above 50 µg/mL; in test [9], 0.891 µg/mL.

Turning to 10E8v4 S100cY (antibody), the IC50, pseudovirus neutralization is 0.412 µg/mL in test [1]; above 50 µg/mL in [2]; 0.028 µg/mL in test [3]; 1 ng/mL in test [4]; 0.376 µg/mL in test [5]; 0.368 µg/mL in [6]. In addition, the IC50, pseudovirus neutralization in [7] is 0.011 µg/mL; in test [8], above 50 µg/mL; in [9] it was 0.009 µg/mL. Also, the IC80, pseudovirus neutralization was 3.44 µg/mL in [1]; above 50 µg/mL in test [2]; 0.129 µg/mL in test [3]; 0.006 µg/mL in test [4]; 2.25 µg/mL in test [5]; 1.39 µg/mL in test [6]. Moreover, the IC80, pseudovirus neutralization in test [7] was 0.075 µg/mL; in [8], above 50 µg/mL; in test [9] it was 0.063 µg/mL.

The values are drawn from patent US20190077849A1.
